Results from paper PMC2944812.

Target: Human C1q (human) (UniProt P02745)
Experiment: flow cytometry on cells; Washed TRAP-activated human platelets incubated with or without purified C1q (10 ug/mL), washed, then HAGG (0-10 ug/mL) for 30 min at RT; HAGG detected with rabbit anti-human IgG (Fab2)-FITC; C1q held on the platelet surface

UniProt P02745, sequence (P02745 23-245, chain 1 of 3): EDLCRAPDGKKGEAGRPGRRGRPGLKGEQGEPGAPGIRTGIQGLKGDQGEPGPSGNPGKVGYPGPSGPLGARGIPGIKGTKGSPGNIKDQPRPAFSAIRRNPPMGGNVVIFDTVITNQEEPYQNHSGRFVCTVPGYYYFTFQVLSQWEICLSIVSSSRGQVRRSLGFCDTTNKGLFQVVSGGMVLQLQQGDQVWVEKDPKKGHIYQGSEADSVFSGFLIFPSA
UniProt P02745, sequence (P02746 28-253, chain 2 of 3, further chain): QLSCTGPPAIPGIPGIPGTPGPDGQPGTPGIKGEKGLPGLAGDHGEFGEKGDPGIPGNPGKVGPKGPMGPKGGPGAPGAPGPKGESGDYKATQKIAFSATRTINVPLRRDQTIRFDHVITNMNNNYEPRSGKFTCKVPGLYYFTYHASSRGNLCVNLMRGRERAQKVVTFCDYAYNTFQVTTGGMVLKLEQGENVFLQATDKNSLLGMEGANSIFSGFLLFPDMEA
UniProt P02745, sequence (P02747 29-245, chain 3 of 3, further chain): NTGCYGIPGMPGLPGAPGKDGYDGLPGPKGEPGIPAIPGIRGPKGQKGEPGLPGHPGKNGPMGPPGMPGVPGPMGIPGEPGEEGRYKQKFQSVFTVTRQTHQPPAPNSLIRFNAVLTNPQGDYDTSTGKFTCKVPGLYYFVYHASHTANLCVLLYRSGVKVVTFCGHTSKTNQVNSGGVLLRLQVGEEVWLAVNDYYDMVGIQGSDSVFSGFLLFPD

heat-aggregated gamma globulin (natural protein)
fold increase of HAGG binding to activated platelets with C1q against without C1q: 2 fold
